Experimental data taken from paper PMC4048260.

How the values were obtained:
[1] = molecular target: NL4-3 gp140 trimer (soluble, uncleaved gp140 from the X4 HIV-1 subtype B strain NL4-3) (HIV-1 (subtype B, strain NL4-3)); experiment: negative-stain electron microscopy, single particle 3D reconstruction; purified trimers, ~0.02 mg/ml, 2% uranyl formate, about 3,000 particles per data set, C3 symmetry applied, resolution ~25 Å
[2] = molecular target: NL4-3/ADA gp140 trimer (hybrid: NL4-3 gp140 with the V3 spanning region of the R5 strain ADA) (HIV-1 (subtype B, strain NL4-3) | HIV-1 (subtype B, strain ADA)); experiment: as above

| Substance | stoichiometry N [1] | stoichiometry N [2] |
| --- | --- | --- |
| NL4-3 gp140 trimer (soluble, uncleaved gp140 from the X4 HIV-1 subtype B strain NL4-3) (domain or fragment) | 3 |  |
| NL4-3/ADA gp140 trimer (hybrid: NL4-3 gp140 with the V3 spanning region of the R5 strain ADA) (domain or fragment) |  | 3 |
